In patent US20050095616A1:
Values belong to the substance of their own block, whether it stands above or below them.

How the values were obtained:
[1] = biological target: proteasome; test: cell-based or functional assay
[2] = test system: IκB(S32A, S36A)-Bla mutant fusion protein
[3] = biological target: IκBα-beta-lactamase (IκBα-Bla) fusion protein, wild type (N-terminal IκBα and C-terminal Bla); test: cell-based or functional assay

IC50 for inhibition of the TNFα-stimulated decrease in reporter levels [1]: 5 µM
Substance: ALLN (peptide)

Substance: IκB kinase (IKK)
decrease in β-lactamase activity in response to TNFα treatment (10 ng/ml, 30 minutes) [2]: the mutation of serines-32 and -36 abolished the decrease in β-lactamase activity in response to TNFα treatment

decrease in β-lactamase activity of Jurkat IκB-Bla cells after 10 ng/ml TNFα [3]: 2 fold
Substance: IκB kinase (IKK) (enzyme)
